What was measured:
[1] = molecular target: mouse VEGFR-2/Fc chimeric receptor (mouse) (UniProt P35918); assay: competition plate binding assay: cold competitor against 125I-VEGF165 on immobilized VEGFR-2 (KDR)/Fc, scintillation counting
[2] = molecular target: mouse VEGFR-1/Fc chimeric receptor (mouse) (UniProt P35969); assay: competition plate binding assay: cold competitor against 125I-VEGF165 on immobilized VEGFR-1 (Flt-1)/Fc, scintillation counting
[3] = molecular target: rat Neuropilin-1/Fc chimeric receptor (rat) (UniProt Q9QWJ9); assay: competition plate binding assay, cold competitor against 125I-VEGF165 on immobilized rat neuropilin-1/Fc, without heparin
Sequence of rat Neuropilin-1/Fc chimeric receptor (rat) (Q9QWJ9 22-854, stated change not applied): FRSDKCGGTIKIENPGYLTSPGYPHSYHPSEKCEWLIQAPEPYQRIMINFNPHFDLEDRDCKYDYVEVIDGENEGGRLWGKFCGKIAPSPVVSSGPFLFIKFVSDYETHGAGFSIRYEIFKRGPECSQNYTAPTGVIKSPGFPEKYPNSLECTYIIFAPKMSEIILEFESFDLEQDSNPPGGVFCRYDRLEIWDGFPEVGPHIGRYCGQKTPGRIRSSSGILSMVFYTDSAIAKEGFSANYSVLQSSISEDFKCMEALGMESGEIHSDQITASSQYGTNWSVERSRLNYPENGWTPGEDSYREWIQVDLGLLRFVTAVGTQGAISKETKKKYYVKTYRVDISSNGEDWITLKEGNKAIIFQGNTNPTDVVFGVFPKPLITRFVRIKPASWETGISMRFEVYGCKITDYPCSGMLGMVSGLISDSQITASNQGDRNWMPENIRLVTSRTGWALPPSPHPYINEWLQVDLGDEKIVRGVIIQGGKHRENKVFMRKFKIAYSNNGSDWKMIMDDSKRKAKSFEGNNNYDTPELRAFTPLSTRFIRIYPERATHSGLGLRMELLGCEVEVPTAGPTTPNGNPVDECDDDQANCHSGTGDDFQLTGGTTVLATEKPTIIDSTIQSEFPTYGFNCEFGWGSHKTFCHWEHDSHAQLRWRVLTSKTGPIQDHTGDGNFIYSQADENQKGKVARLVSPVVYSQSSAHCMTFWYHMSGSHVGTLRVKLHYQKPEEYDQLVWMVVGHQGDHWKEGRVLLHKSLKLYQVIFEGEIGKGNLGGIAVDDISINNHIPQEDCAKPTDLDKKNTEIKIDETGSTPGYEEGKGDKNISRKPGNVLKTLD

Sequence of mouse VEGFR-1/Fc chimeric receptor (mouse) (P35969 23-759, stated change not applied): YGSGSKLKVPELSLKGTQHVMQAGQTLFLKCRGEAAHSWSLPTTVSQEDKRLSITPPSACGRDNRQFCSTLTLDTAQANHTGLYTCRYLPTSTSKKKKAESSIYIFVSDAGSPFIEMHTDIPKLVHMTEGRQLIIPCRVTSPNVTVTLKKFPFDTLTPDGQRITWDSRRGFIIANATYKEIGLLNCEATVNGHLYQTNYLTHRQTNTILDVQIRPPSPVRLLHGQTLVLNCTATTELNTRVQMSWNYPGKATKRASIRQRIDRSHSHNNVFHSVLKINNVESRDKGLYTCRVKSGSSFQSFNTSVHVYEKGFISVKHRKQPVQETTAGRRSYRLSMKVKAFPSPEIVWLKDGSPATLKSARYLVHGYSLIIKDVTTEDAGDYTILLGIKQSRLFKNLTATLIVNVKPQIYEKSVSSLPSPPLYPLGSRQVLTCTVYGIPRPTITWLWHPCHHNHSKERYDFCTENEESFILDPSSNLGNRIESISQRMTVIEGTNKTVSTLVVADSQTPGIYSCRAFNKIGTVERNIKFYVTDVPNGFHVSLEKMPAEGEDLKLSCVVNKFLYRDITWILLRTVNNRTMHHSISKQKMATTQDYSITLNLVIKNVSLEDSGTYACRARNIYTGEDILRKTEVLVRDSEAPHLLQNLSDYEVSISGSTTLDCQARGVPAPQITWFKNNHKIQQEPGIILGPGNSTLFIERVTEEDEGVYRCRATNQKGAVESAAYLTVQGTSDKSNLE
Sequence of mouse VEGFR-2/Fc chimeric receptor (mouse) (P35918 20-762, stated change not applied): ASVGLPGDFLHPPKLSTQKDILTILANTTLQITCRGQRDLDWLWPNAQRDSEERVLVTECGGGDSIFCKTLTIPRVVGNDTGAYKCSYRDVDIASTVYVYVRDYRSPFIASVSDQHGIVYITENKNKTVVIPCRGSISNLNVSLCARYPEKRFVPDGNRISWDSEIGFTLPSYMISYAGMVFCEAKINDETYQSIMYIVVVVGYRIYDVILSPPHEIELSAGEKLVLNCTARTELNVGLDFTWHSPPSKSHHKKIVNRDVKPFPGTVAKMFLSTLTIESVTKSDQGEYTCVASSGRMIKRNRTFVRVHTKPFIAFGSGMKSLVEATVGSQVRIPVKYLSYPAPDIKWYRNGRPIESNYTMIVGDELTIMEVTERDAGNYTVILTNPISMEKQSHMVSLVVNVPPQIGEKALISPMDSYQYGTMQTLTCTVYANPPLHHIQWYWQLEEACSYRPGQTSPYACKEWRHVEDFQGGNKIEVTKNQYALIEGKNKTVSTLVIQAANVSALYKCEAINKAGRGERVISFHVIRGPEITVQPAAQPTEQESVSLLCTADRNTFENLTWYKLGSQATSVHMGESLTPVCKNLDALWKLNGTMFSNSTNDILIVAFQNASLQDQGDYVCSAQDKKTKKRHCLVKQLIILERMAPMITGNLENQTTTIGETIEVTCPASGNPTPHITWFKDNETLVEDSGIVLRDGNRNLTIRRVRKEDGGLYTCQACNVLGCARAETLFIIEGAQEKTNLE

Substance	IC50 (read off the curve) [1]	IC50 (read off the curve) [2]	fold reduction of binding affinity compared to VEGF164 [3]
VEGF164 double mutant R14A/R49A (from UniProt P15692 207-395) (ligand)	0.08 nM	0.09 nM	
VEGF164 mutant R13A/R14A/R46A/R49A (from UniProt Q00731 27-190) (ligand)			115 fold
VEGF164 triple mutant R13A/R14A/R49A (from UniProt P15692 207-395) (ligand)	0.08 nM	0.2 nM	
